Patent US20250215403A1, “Compositions and Methods for Cardiac Tissue Regeneration” (Temple University - Of The Commonwealth System Of Higher …, priority 2022, published 2025)

System: cardiomyocytes (CM)
Experiment: Mouse MI model: immunostaining of heart sections for CM cell cycle markers (ki67, pH3, BrdU, Aurora B)
Type: in vivo
Conditions: seven days post-MI
Method: All surgical and experimental procedures with mice were performed in accordance with protocols approved by Institutional Animal Care and Use Committees at Temple University Animal Care and Use Committee (IACUC). C57BL6 or CM-specific MADM mice (8-12-weeks-old) were anesthetized with isoflurane. MI was induced by permanent ligation of the LAD, as previously described (Garikipati, V. N. S., et al., 2019, Nature Communications, 10:4317). Briefly, the left thoracic region was shaved and sterilized. After intubation, the heart was exposed through a left thoracotomy. A suture was placed to ligate the LAD. The thoracotomy and skin were sutured closed in layers. Excess air was removed from the thoracic cavity, and the mouse was removed from ventilation when normal breathing was established. In order to determine the effect of modRNA on cardiovascular outcome after MI, modRNAs (100 μg/heart) were injected into the infarct zone immediately after LAD ligation (Magadum A., et al., Circulation. 2020, 141 (15): 1249-1265). For examination of heart histology, hearts were collected at the end of each study, quickly washed in PBS, weighed, and fixed in 4% PFA for cryo-sectioning and immunostainings. In all experiments, the surgeon was blinded to the treatment group. For assessment of heart histology, hearts were collected at the end of each study. The hearts were excised, briefly washed in PBS, perfused with perfusion buffer, weighed and fixed in 4% PFA at 4° C. overnight. The heart blocks were transverse sectioned at 6-8 μm using cryostat. The heart sections were further processed for histological evaluation using immunostaining (see below) or histological scar staining using Masson's trichrome staining kit (Sigma) according to standard procedures. Measuring the ratio of heart weight to body weight was done using a scale. This ratio was calculated as the heart tissue weight relative to the mouse total body weight in grams (g).
Mice were injected with AAV9-GFP or AAV9-YAP1-shRNA (GeneCopoeia) through retro-orbital injection 7 days before LAD. A total of 5×10^11 viral genomes (50 μl total volume delivered) was injected per mouse. The level of YAP1 inhibition was determined at the mRNA level by qPCR 14 days post injection.
Mice hearts were harvested, weighed, and fixed in 4% PFA/PBS overnight on shaker and then washed with PBS for 1 hour and incubated in 30% sucrose/PBS at 4° C. for 12-18 hours. Hearts were then fixed in OCT and frozen at −80° C. (Magadum A., et al., Circulation. 2020, 141 (15): 1249-1265). Transverse heart sections (6-8 μm) were made using a cryostat. Frozen sections were rehydrated in PBS for 5-10 min followed by permeabilization with PBS with 0.1% Triton™ X100 (PBST) for 7-8 min. Heart sections were then treated with 3% H2O2 for 5 min and washed (3×5 min) with PBST. The samples were then blocked with PBS+10% Donkey normal serum+0.1% Triton™ X100 (PBSST) for 1 hour at room temperature. Primary antibodies (see complete list of primary antibodies used for this Example in Table 2 below) diluted in PBST were added and incubated overnight at 4° C. Slides were washed with PBST (3×5 min) followed by incubation with a secondary antibody (Invitrogen, 1:200) diluted in PBST for 90-120 min at room temperature. The samples were further washed with PBST (3×5 min) and stained with DAPI or Hoechst 33342 (1 μg/ml) diluted in PBST for 7 min. After being washed with PBST (3×7 min) and tap water (1×5 min) slides were mounted with mounting medium (VECTASHIELD®) for imaging (Magadum A., et al., Circulation. 2020, 141 (15): 1249-1265). Stained slides were stored at 4° C. All staining was performed on 4-8 hearts/group, with 2-3 sections/heart. For immunostaining with wheat germ agglutinin (WGA) for CM size quantification, images were captured at 40× magnification, and ImageJ was used to determine the area of each cell. […]

B1: PSAT1 modRNA: modified mRNA with N1-methylpseudouridine, transcribed in vitro, encoding phosphoserine aminotransferase 1 (ORF SEQ ID NO: 1, RNA SEQ ID NO: 2) (nucleic acid)
chain: AUGGAAGCCACCAAGCAAGUGGUUAACUUUGGGCCCGGGCCUGCCAAGCUGCCACACUCGGUAUUGUUGGAGAUCCAGAAGCAGCUACUAGACUACAGAGGACUCGGCAUCAGUGUGCUCGAAAUGAGUCACAGGUCAUCAGAUUUUGCCAAGAUUAUUGGCAAUACAGAGAAUCUUGUGAGGGAAUUGCUAGCUGUUCCCAACAACUACAAGGUGAUCUUUGUACAAGGAGGUGGGUCUGGCCAGUUCAGUGCUGUCCCCUUAAAUCUGAUUGGCCUGAAAGCUGGAAGGAGUGCUGACUACGUGGUGACCGGAGCUUGGUCAGCUAAGGCUGCGGAAGAAGCCAAGAAGUUUGGAACGGUGAACAUUGUCCACCCUAAACUUGGAAGUUACACAAAAAUUCCAGACCCAAGCACCUGGAACCUCAACCCGGACGCCUCCUAUGUAUACUUCUGUGCAAACGAGACUGUGCACGGGGUGGAGUUUGACUUCGUACCUGACGUCAAGGGAGCGGUGCUGGUCUGUGACAUGUCCUCAAACUUCUUAUCCAGGCCGGUGGAUGUUUCCAAGUUUGGUGUGAUUUUCGCUGGUGCUCAGAAGAAUGUUGGCUCUGCCGGGGUGACGGUGGUGAUUGUCCGGGAUGACCUGCUGGGGUUCUCGCUCAGAGAGUGCCCAUCAGUCCUUGACUACAAAGUGCAGGCUGGGAACAACUCUUUGUAUAACACACCUCCGUGCUUCAGCAUCUACGUCAUGGGCAUGGUCCUGGAAUGGAUCAAGAACAACGGCGGGGCCGCAGCCAUGGAGAAGCUCAGCUCCAUCAAAUCCCAAAUGAUUUAUGAGAUCAUUGAUAAUUCUCAAGGAUUUUAUGUAUGCCCAGUGGAGCGCCAGAAUAGAAGCAGGAUGAACAUCCCAUUUCGCAUUGGCAACGCCAAAGGAGACGAAGCUUUGGAAAAGCGGUUUCUUGACAAGGCGGUAGAACUCAACAUGAUCUCCUUGAAGGGGCACAGGUCAGUGGGAGGCAUUCGUGCCUCUCUGUAUAACGCUGUCACAACCGAAGACGUUGAGAAGCUGGCGGCCUUCAUGAAGAAUUUCUUGGAGAUGCAUCAGCUGUGA
modifications: N1-methylpseudouridine
CM cell cycle inhibition under YAP1 inhibition (PSAT1 modRNA plus AAV9-YAP1-shRNA, compared to controls, significantly lower rate than PSAT1 modRNA alone): partially reversed | CMs positive for Aurora B (compared to Luc modRNA): significant increase | CMs positive for BrdU (DNA synthesis) (compared to Luc modRNA): significant increase | CMs positive for pH3 (compared to Luc modRNA): significant increase
